Patent US20210369812A1, “OSTEOINDUCTIVE PEPTIDES, COMPOSITIONS, IMPLANTS, AND METHODS OF USE” (The Board of Regents of the University of Oklahoma, priority 2018, published 2021)
Entries after “also recorded” stand apart in the source; their conditions may differ.

How the values were obtained:
[1] = biological target: T1, BMPR1A (Homo sapiens, UniProt P36894); test: Enzyme-linked immune sorbent assay for receptor binding (BMPR1A); settings: peptide on p3 of M13 phage; absorbance 450 nm; n=4; vs wild type phage
T1 construct: purchased G&P Biosciences
Description: Groups having the same lowercase letter assigned (above the bar) were not statistically different from each other. Groups having different letters assigned (above the bar) were statistically different from each other. […] The primary antibody was mouse anti-g3p (p8) IgG. The secondary antibody was anti-mouse IgG conjugated with horseradish peroxidase. The substrate, 3,3′,5,5′-Tetramethylbenzidine was detected at 450 nm after stopping the reaction with 1 M HCl.
Blocking buffer (0.1 M NaHCO3 (pH 8.6), 5 mg/ml BSA. Filter sterilized, stored at 4° C.) was prepared. TBS (50 mM Tris-HCl (pH 7.5), 150 mM NaCl, autoclaved, stored at room temperature) was prepared. Separate solutions of the target receptors were then made. For BMPR1A, a 10 μg/ml stock solution was made. For BMPR2, a 10 μg/ml solution was also made. Separate wells with n=4 for each different peptide bearing phage group were then coated with one of the receptors. The coating was done by adding 100 μl of the target solution to wells of a 96-well plate followed by swirling until the surface was completely wet. The plates were then allowed to incubate overnight at 4° C. with gentle agitation in a humidified container (a plastic box lined with damp paper towels). Any excess target solution was then removed, and the plate was slapped face-down on a clean paper towel. The wells of the plate were then blocked with 200 μl of blocking buffer for 1 hour at room temperature. […] The blocking buffer was then removed from each plate followed by 5 washes with 200 μl of TBST. Each time the plate was slapped against a clean section of paper towel face-down. […] After a brief pilot test, it should be noted that using 10^10 phage/ml was determined to work best, but other concentrations of virus also worked consistently. […] Then, […] of freshly prepared 3,3′,5,5′-Tetramethylbenzidine (TMB) was added to each well and the absorbance at 370 nm and 652 nm was monitored for 1 hour using an ELISA plate reader. […] The absorbance at 450 nm for each well was then measured.

[2] = tested on: hMSCs; test: qPCR of osteoblast marker genes; format: cell-based, human; settings: 26 days on phage films; normalized to GAPDH; relative to negative control (basal media)
Method: Gene expression was normalized to the reference gene, GAPDH. All fold changes are relative to a negative control (basal media with no peptides or phage) which represents the baseline at zero-fold change. […] All data represent the mean±standard deviation. (*P≤0.05, **P≤0.01, ***P≤0.001).
hMSCs were seeded (1×10^3 cells per culture plate) on to phage films as well as relevant control plates. The cells were then cultured for 26 days. The cells then were processed with a Power SYBR™ Green Cells-to-CT™ Kit. The number of cells was adjusted to be 5×10^3 cells per lysis reaction. All other parameters were kept the same as the manufacturer's protocol for this kit. The gene expression of osteopontin, osteocalcin, and collagen type 1A were measured as a fold change normalized to the reference gene GAPDH and a negative control (basal media+ cells but no phage) such that the baseline at zero-fold change represents the negative control. For temperature cycling and measuring CT values, a MiniOpticon Real Time PCR System was used.

T1 sequence (P36894 24-152 limits assumed): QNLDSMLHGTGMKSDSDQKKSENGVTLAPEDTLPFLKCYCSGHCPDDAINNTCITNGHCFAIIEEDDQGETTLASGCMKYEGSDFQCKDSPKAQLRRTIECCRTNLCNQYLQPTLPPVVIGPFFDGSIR

| Sequence | Relative binding strength in ELISA to BMPR1A [1] | Osteopontin gene expression, fold change [2] |
| --- | --- | --- |
| SGTQDSMVGWNK (Completely synthesized in the lab - Ph.D.-12 Phage Display Peptide Library Kit (New England Biolabs)) | best binders | greater osteopontin production than the wild type, but not greater than the Lonza osteogenic media; also recorded: statistically significant advantage over the wild type phage films |
| VHVPLHRGAVSA (Completely synthesized in the lab - Ph.D.-12 Phage Display Peptide Library Kit (New England Biolabs)) | best binders | greater osteopontin production than the Lonza osteogenic media; also recorded: statistically significant advantage over the wild type phage films; also recorded: statistically significant advantage over the positive control |
